Molecular target: MBP-BnPHR1 (Brassica napus, UniProt W5QL02 1-417)
Experiment: EMSA; EMSA: 750 mM KCl, 0.5 mM DTT, 0.5 mM EDTA, 50 mM Tris pH 7.4 (so in the source), room temperature, 20 min; native PAGE, SYBR Green then SYPRO Ruby stain
Settings: protein: recombinant; tags: N-terminal MBP (pMAL-c2); chain copies: 2; label: none (SYBR Green post-stain); 5' overhang 4 nt on both strands (AATT and CCGG), 41 bp duplex

MBP-BnPHR1, sequence (W5QL02 entry or part of it): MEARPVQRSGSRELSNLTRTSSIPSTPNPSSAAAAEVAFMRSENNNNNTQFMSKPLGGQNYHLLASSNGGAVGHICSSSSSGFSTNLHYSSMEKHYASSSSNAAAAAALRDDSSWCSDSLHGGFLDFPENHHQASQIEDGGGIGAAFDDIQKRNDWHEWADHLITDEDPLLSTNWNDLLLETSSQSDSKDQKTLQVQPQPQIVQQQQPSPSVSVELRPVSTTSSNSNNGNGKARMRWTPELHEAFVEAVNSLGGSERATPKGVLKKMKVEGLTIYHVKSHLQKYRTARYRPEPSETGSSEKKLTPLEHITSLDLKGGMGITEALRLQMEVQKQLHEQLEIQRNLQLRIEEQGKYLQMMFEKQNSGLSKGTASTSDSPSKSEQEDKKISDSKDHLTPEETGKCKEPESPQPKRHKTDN

B1: BnPT2 promoter probe (BnPT2p1/p2) (dsDNA)
DNA 1: AATTGGAGGGGAATATACCGAAACATTGTTGTATATTCATGTAAG
DNA 2: CCGGCTTACATGAATATACAACAATGTTTCGGTATATTCCCCTCC
B1: binds.

— paper PMC3430610, “Brassica napus PHR1 Gene Encoding a MYB-Like Protein Functions in Response to Phosphate Starvation”
